The source of these data is patent publication US20240067748A1 (NONA BIOSCIENCES SUZHOU, published 2024).

Assay [1] deals with T1, human Trop2 on cells (human, UniProt P09758 27-323).
T1 construct: whole, on cells; also called hTrop2; 293T-human Trop2 cells
T1 sequence (looked up): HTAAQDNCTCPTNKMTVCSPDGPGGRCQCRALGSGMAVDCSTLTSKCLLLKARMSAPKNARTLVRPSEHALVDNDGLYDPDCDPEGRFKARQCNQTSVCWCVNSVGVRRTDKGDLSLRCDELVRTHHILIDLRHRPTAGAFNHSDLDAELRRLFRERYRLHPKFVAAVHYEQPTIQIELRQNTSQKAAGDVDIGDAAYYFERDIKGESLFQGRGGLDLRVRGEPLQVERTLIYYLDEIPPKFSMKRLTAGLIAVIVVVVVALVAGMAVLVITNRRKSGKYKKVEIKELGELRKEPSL
As to the kind of experiment: flow cytometry on BxPC-3 tumor cells. As to the method: BxPC-3 tumor cells (the Cell Bank of the Chinese Academy of Sciences, #TCHu 12) were digested with 3 mL of TrypLE, and the digestion was stopped with 7 mL of the corresponding medium. […] The cell solution was centrifuged, and the cells were washed once with PBS+[…] buffer. […] The cells were washed once with PBS+0.50% BSA. The cells were incubated at 4° C. for 1 h in the dark with 100 μL of Alexa Fluor 488 goat anti-human IgG (Life technologies, #A-11013) diluted at 1:1000, and washed twice with PBS+0.50% BSA. The cells were resuspended in 200 μL of PBS+0.50% BSA. The suspension was centrifuged at 4° C. for 5 min at 2000 rpm and tested using a FACS verse flow cytometer or NovoCyte flow cytometer (ACEA Biosciences). All procedures were performed on ice.

The target in assay [2] is T2, human TROP2 protein (Sino Biological, #10428-H08H) (human, UniProt P09758 27-274).
T2 construct: bought protein; also called human Trop2 protein antigen (His tag); not shown: His tag
T2 sequence (looked up): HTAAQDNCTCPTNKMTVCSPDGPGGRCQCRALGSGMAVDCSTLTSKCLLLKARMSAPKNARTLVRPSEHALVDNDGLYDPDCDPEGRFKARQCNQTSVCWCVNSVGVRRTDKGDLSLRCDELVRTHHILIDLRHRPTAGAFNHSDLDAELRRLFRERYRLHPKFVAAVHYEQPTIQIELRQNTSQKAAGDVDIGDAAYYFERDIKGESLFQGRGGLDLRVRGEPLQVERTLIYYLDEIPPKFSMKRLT
As to the kind of experiment: BLI, Octet RED96, AHC sensor. In outline: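 Human or monkey Trop2 protein at 200 nM in PBS pH 7.4 with 0.1% BSA and 0.02% Tween 20 was loaded on the sensor. Association used 40 nM antibody for 3 min at 30° C, then dissociation ran 5 min in the same buffer. Signals were recorded in real time; KD, kon and koff were fitted.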

The target in assay [3] is T3, monkey Trop2 protein (Sino Biological, #90893-C08H) (monkey, UniProt A0A2K5UE71 27-274).
T3 construct: bought protein; also called monkey Trop2 protein antigen (His tag)
T3 sequence: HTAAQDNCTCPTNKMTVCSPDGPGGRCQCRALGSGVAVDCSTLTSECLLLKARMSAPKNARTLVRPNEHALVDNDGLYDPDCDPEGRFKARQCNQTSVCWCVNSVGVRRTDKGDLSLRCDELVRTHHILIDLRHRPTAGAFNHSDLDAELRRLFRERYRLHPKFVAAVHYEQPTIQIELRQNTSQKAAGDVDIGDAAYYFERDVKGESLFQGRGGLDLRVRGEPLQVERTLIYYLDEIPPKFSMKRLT
As to the kind of experiment: BLI, Octet RED96, AHC sensor. In outline: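 Affinity and on/off rate constants came from real-time association and dissociation traces. The sensor carried human or monkey Trop2 loaded at 200 nM, and 40 nM antibody was applied for 3 min, then buffer for 5 min, at 30° C in PBS pH 7.4 containing 0.1% BSA and 0.02% Tween 20.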

Assay [4] concerns the target T4, mouse Trop2-his protein (Sino Biological, #50922-M08H) (mouse, UniProt Q8BGV3 25-270).
T4 construct: bought protein; also called mouse Trop2 protein; not shown: his tag
T4 sequence (looked up): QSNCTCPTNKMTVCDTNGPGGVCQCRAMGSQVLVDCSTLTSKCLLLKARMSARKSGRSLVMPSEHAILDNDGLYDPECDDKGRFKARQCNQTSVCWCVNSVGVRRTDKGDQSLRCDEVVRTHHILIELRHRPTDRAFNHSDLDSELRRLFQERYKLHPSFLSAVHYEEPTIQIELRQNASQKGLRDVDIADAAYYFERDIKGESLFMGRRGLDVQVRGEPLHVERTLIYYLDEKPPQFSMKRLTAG
The assay is described as follows: ELISA, plate coated with mouse Trop2-his protein, anti-human IgG (H+L)-HRP, OD450 nm. The protocol: An ELISA plate was coated with 100 μL of 1 μg/mL mouse Trop2-his protein (Sino Biological, #50922-M08H) in PBS at 4° C. overnight. The plate was blocked with 200 μL of PBST (PBS+0.05% tween 20)+2% BSA at 37° C. for 1 h. The plate was washed 4 times with PBST. 100 μL of Trop2 antibody diluted in a gradient (5-fold dilution, starting concentration: 33.33 nM) was added to the ELISA plate and the plate was incubated at 37° C. for 1 h. The plate was washed 4 times with PBST. 100 μL of anti-human IgG (H+L)-HRP (Sigma, #A8667) diluted in 1:4000 was added and the plate was incubated at 37° C. for 1 h. The plate was washed 4 times with PBST. 100 μL of TMB substrate (Invitrogen, #88-7025-88) was added and the plate was incubated at room temperature for 5 min, and then 50 μL of stop buffer (BBI life sciences, #E661006-0200) was added to stop the reaction. The OD450 nm reading was recorded using a microplate reader (Perkin Elmer, EnSpire).

B1: PR001133 (antibody, human IgG1, kappa, V domains shown)
VH: QVNLVESGGGVVQPGRSLKLSCAASGFTFSSYGMHWVRQAPGKGLEWVALIWSDGTNRYYTESVKGRFTISRDNSKNTLSLQMKSLRAEDTAVYYCAKDGWGTYGEYFQHWGQGTLVTVSS
VL: DIQMTQSPSSLSASVGDRVTITCRASQNINSYLHWYQQKPGKAPKLLIYAASSLQSGVPSRFSGSGSGTDFTLTISSLQPEDFAIYYCQQSYSIPPITFGQGTRLEIKR
notes: fully human IgG1/kappa; also called antibody No. (5)
As for B1, in assay [1], the EC50 was 2.07 nM and the “Maximum MFI value” was found to be 8950 MFI. In assay [2], this molecule displayed a Kd of 1.1 nM, a Response of 0.386, a koff of 9.72e-05 s⁻¹ and an on-rate constant (kon) of 88500 M⁻¹ s⁻¹. In assay [3], this molecule showed a Kd of 2.49 nM, a Response of 0.369, a koff of 0.000149 s⁻¹ and an association rate constant (kon) of 59800 M⁻¹ s⁻¹. The binding result in assay [4] is “no binding”.

B2: PR001162 (antibody, human IgG1, kappa, V domains shown)
VH: QVQLVESGGGVVQPGTSLRLSCVASGFTFSNDGMHWVRQAPGMGLEWVAIMWFDGGSKYYADSVKGRFTISRDNSKNTLYLQMNNLRAEDTAVYYCARDHPHYLGSGSFDYWGQGTLVTVSS
VL: EIVLTQSPATLSLSPGERATLSCRASQSVSSYLAWYQQKPGQAPRLLIYDASNRATGIPARFSGSGSGTDFTLTISSLQAEDVAVYYCQQYYSTPYTFGQGTKLEIKR
notes: fully human IgG1/kappa; also called antibody No. (23)
On to B2, for which, in assay [1], the response was half-maximal at 1.12 nM (EC50), the “Maximum MFI value” was found to be 9110 MFI and the “fold lower EC50 than the reference antibody hRS7” value is about 2 fold. Besides, in assay [2], the Kd was 1.7 nM, the Response came out at 0.366, the koff is 0.000507 s⁻¹ and the kon is 298000 M⁻¹ s⁻¹. In assay [3], this molecule displayed a Kd of 3.66 nM, a Response of 0.37, a koff of 0.000732 s⁻¹ and a kon of 200000 M⁻¹ s⁻¹. Further, in assay [4], the binding result is listed as “no binding”.
